Publication PMC2199314 (The Journal of Cell Biology, 2001)

Biological target: taxol-stabilized bovine brain microtubules (bovine, UniProt Q6B856 1-445)

B1: Escherichia coli–purified Dam1p (natural protein, S. cerevisiae, UniProt P53267 1-343, looked up)
chain: MSEDKAKLGTTRSATEYRLSIGSAPTSRRSSMGESSSLMKFADQEGLTSSVGEYNENTIQQLLLPKIRELSDSIITLDSNFTRLNFIHESLADLNESLGSLLYGIMSNSWCVEFSQAPHDIQDDLIAIKQLKSLEDEKNNLVMELSNMERGIKRKKDEQGENDLAKASQNKQFNQPLFPSSQVRKYRSYDNRDKRKPSKIGNNLQVENEEDYEDDTSSEASFVLNPTNIGMSKSSQGHVTKTTRLNNNTNSKLRRKSILHTIRNSIASGADLPIENDNVVNLGDLHPNNRISLGSGAARVVNGPVTKNRNSMFSGRAERKPTESRHSVAKKTEKKINTRPPFR
- Kd: ~0.5 µM
